# According to patent publication US20160184401A1, “NON-AGGLOMERATING BIOCONJUGATES OF AMYLIN AND AMYLIN-MIMETIC COMPOUNDS, COMPOSITIONS COMPRISING THE SAME, AND MAKING AND USE THEREOF” (UNIVERSIDADE FEDERAL DO RIO DE JANEIRO, priority 2013, published 2016):
# Ends that are not written are not given here.
# Assays:
# [1] = biological target: T1, RAMP3 (Homo sapiens, UniProt O60896); test: RAMP3 coreceptor binding, fluorescence anisotropy of RAMP-FITC; details: duplicate assays, FIG. 6
# T1 sequence (O60896 24-148): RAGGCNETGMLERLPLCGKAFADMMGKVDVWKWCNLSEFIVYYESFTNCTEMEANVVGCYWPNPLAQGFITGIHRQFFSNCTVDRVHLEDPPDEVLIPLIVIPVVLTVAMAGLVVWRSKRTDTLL
# Description: (§1) Purified monoPEGylated human amylin was assayed for RAMP2 and RAMPS coreceptor binding interaction.
# (§2) RAMP (receptor activity modifying protein) was labeled with fluorescein isothiocianate for 1 h at 4° C. in PBS ([…]) pH 7.4, and purified by size exclusion chromatography (SEC) in Sepharose G25 (agarose-based chromatography media, provided by the US company GE Healthcare) using the same buffer. Labelling was confirmed by UV absorbance measurements at A280 and A490, allowing estimation of coupling efficiency, relying on about 0.5 fluorescein/RAMP molecule.
# [2] = biological target: RAMP2 (Homo sapiens, UniProt O60895); test: RAMP2 coreceptor binding, fluorescence anisotropy of RAMP-FITC; details: duplicate assays, FIG. 5
# Chain of RAMP2 (O60895 43-175, species assumed): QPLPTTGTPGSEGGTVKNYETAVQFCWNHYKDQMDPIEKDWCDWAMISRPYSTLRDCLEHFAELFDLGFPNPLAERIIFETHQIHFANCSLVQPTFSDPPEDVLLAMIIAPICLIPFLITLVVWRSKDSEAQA
# Description: as §1, §2
# [3] = Short-term stability with insulin analogues, ThT binding assay; format: physicochemical; details: 10 μM of each compound, 10 mM NaH2PO4 pH 7.4, 24h at 25° C.; FIG. 13A-D
# Description: The aggregation ratio of human amylin or its PEGylated derivative upon combination with insulin R, insulin detemir, or insulin glargine was tested by ThT binding assay. Combinations (10 μM of each compound) were incubated with 10 mM NaH2PO4 pH 7.4 and in presence of 10 μM ThT, for 24h at 25° C. Fluorescence variations indicating amyloid fibers formation were monitored by exciting at 450 nm and measuring emission at 482 nm.
# [4] = Amyloid aggregation of human amylin by thioflavin T (ThT) binding; format: physicochemical; details: pH 7.4, FIG. 7
# Description: Purified monoPEGylated human amylin of example 1 was re-suspended in DMSO and diluted to PBS pH 7.4 and allowed to incubate at 37° C. Samples were evaluated for amyloid aggregates by using the amyloid chromogenic probe thioflavin T (ThT). The employment of ThT binding protocols to measure amyloid fibril formation has already been determined in the art (see, e.g., Levine, 1999). The kinetics of amylin (50 μM of free or hAmy-PEG5k) aggregation was performed by incubating the protein in 10 mM NaH2PO4 pH 7.4 at 25° C. Aggregation was followed by the binding of Thioflavin T (ThT) to amyloid fibrils, by adding 160 μL sample with 40 μL ThT 100 μM and monitoring fluorescence by exciting at 450 nm and measuring emission at 482 nm for 24 h
# [5] = Long-term effect of pH on aggregation of hAmyPEG5k; format: physicochemical; details: 7 days at 25° C. then 9 days at 37° C. (16 days total); FIG. 12
# Description: In another experimental setting, the influence of pH over the stability of the hAmyPEG5k was also tested for a longer period of time (up to 16 days) and at higher energy environments (37° C.). […] (i.e., 16 days total).
# [6] = Pharmacokinetics in rats, plasma ELISA for human amylin; format: in vivo, Harlan Sprague Dawley male rats; details: 100 μg peptide in 500 uL saline, FIG. 8A-C
# Description: The pharmacokinetics of the hAmy-PEG5k and hAmy-PEG20k were characterized in vivo in Harlan Sprague Dawley male rats. The animals were housed in a temperature-controlled room with a light-dark cycle of 12 h. Water and food were available ad libitum. Three groups were formed, control (free human amylin, not PEGylated), hAmy-PEG5k and hAmy-PEG20k. Animals received 500 uL of saline containing 100 μg of human amylin peptides, either free human amylin or purified monoPEGylated human amylin derivatives. Blood was collected retro-orbitally from rats (n=3 rats for each time interval), and the plasma was subjected to ELISA assay for human amylin as provided by the manufacturer (Millipore, Cat Number EZHA-52K.
# [7] = Short-term pH-dependent aggregation, ThT fluorescence; format: physicochemical; details: pH 3.0 to 10.0, 24h at 25° C.; FIGS. 10, 11
# Description: In a first setting, free human amylin, […] incubated in aqueous buffered solutions with different pH (from 3.0 to 10.0) in the presence of ThT. Fluorescence emissions derived from ThT binding to amyloid fibers were monitored for 24h at 25° C. […] These findings support the hypothesis that acylated derivatives of human amylin have increased stability in aqueous solutions, especially, in physiologic pH ranges.
# [8] = Isoelectric focusing (pI determination); format: physicochemical; details: IEF, pH 3-10 linear immobilized pH gradient strips; FIG. 9
# Description: Sixty micrograms of acetylated human amylin (AcO-hAmy) or hAmyPEG5k were dissolved into 8 M urea, 2% CHAPS and 0.002% bromophenol blue buffer to a final volume of 125 μL. The samples were incubated into a 7 cm pH 3-10 linear immobilized pH gradient strips overnight prior to isoelectric focalization (IEF). The IEF was carried out in MultiPhor II (Pharmacia Biotech) device at 20° C. according to the following conditions, 200 V (1 min), ramping to 3500 V (90 min) and 3500 V (60 min). At the end, the strips were fixed with 0.20% glutaraldehyde (in 30% ethanol, 0.2 M sodium acetate) for 60 min at room temperature, and then stained for peptide identification by Coomassie brilliant blue R-250 (at 0.025% in 40% methanol, 7% acetic acid) for 30 min. The excess of Coomassie was removed by incubation with 0.1% acetic acid until no background visualization. The IEF can be easily calculated from the relationship between displacements in the strips and pH. As depicted in FIG. 9, the acetylation of Lys1 present in AcO-hAmy (FIG. 9A) and the PEGylation in the same site, present in hAmy-PEG5k (FIG. 9B), results in similar effects on the pI of human amylin, […] it to approximately 9.2.
substance,measurement,setting,value
"HEWL: unrelated protein hen egg white lisozyme, control for non-specific binding",apparent binding affinity for the coreceptor RAMP3,[1],nonspecific binding
same,apparent binding affinity for the coreceptor RAMP2,[2],nonspecific binding
KCNTATCATQRLANFLVHSSNNFGAILSSTNVGSNTY [human amylin],aggregation (ThT binding),[3],aggregates
same,aggregation (ThT binding to amyloid fibrils),[4]; 50 μM,aggregates very fast
same,aggregation (ThT binding to amyloid fibrils),[4]; in 3 days,almost all free human amylin was aggregated in amyloid form
detemir,aggregation (ThT binding),[3],negligible aggregation
glargine,aggregation (ThT binding),[3],negligible aggregation
"hAmy-PEG5k: monopegylated amylin obtained by the reaction of human amylin and mPEG 5000 Da (KCNTATCATQRLANFLVHSSNNFGAILSSTNVGSNTY; not fully specified (C-terminus, bridges); cysteine pairing not given here; also: mono-PEGylated with mPEG 5000 Da, site not given here)","aggregation at different pH, long term",[5],remains non-aggregated
same,plasma decay / duration of stability in plasma,[6],longer duration of stability in plasma
same,aggregation kinetics / aqueous stability (ThT),[7],improved aqueous stability and lower or absent formation of amyloid fibers
same,aggregation (ThT binding),[3],does not
same,pI,[8],approximately 9.2
same,aggregation (ThT binding to amyloid fibrils),[4]; at day 7,no signs of aggregation
insulin R: recombinant insulin,aggregation (ThT binding),[3],negligible aggregation
